The results in this text go back to PMC7881018, “Granulovirus PK-1 kinase activity relies on a side-to-side dimerization mode centered on the regulatory αC helix” (Nature Communications, 2021).

Assay [1] addresses PK-1 D160N, full length (Cydia pomonella granulovirus (CpGV)). The assay can be described thus: SEC. Background: Size exclusion chromatography separates by hydrodynamic size, large species first.
The next assay has as its target T1, CpGV PK-1 (Cydia pomonella granulosis virus (isolate Mexican), UniProt Q91F41).
T1 construct: gene orf3 pk-1; full-length (residues 1-279), E. coli expressed; assay protein codon-optimised, His6 tag cut by TEV; crystal protein amplified from genomic DNA, TEV-cleavable His6-MBP tag; homodimer 66 kDa
The assay can be described thus: X-ray crystal structure, […] A. The class given is binding. As to conditions: co-crystallised with 1 mM AMP and 10 mM MnCl2; ATP site; 18 C.

The target of assay [2] is PK-1 15-279, truncated PK-1 lacking the domain-swapped N-terminal helix (Cydia pomonella granulovirus (CpGV)). The assay can be described thus: SEC.
Assay [3] has as its target PK-1 D141N, full length (Cydia pomonella granulovirus (CpGV)). The assay can be described thus: SEC.
The target in assay [4] is PK-1 E217DNEEE>QNNQQQ, acidic αF-αG loop mutant (Cydia pomonella granulovirus (CpGV)). The assay can be described thus: SEC.
Assay [5] has as its target PK-1 K49A, full length (Cydia pomonella granulovirus (CpGV)). The assay can be described thus: SEC.
Assay [6] concerns the target Cydia pomonella granulovirus protein kinase-1 (PK-1), full-length wild type (pPROEX Htb construct) (Cydia pomonella granulovirus (CpGV)). The assay can be described thus: SAXS with inline SEC; 5 mg/mL (152 μM) injected on Superdex 200 5/150 Increase, 20 mM HEPES pH 7.5, 200 mM NaCl, 5% glycerol, 12 °C; scatter compared with the crystal dimer (CRYSOL), mass by SAXSMoW2.

Assay [7] shares this target. The assay can be described thus: SEC.
The target is the same in assay [8]. The assay can be described thus: AUC; sedimentation velocity, 0.9 mg/mL (27 μM), 20 °C, 50,000 rpm, 20 mM HEPES pH 7.5, 200 mM NaCl; c(s) model.

As usually defined, the stoichiometry N is a count of units in the complex or per binding partner. With PK-1 D160N, full length (enzyme), in assay [1], the stoichiometry N amounted to 2.

Turning to `Nc1ncnc2c1ncn2[C@@H]1O[C@H](COP(=O)(O)O)[C@@H](O)[C@H]1O` [AMP], the “X-ray crystal structure, 2.01 A” value at CpGV PK-1 was “crystal structure of PK-1 from C. pomonella granulovirus (CpGV) in complex with AMP”.

Turning to “PK-1 15-279, truncated PK-1 lacking the domain-swapped N-terminal helix (domain or fragment)”, the stoichiometry N in [2] came out at 2.

Regarding PK-1 D141N, full length (enzyme), the stoichiometry N in assay [3] came to 2.

“PK-1 E217DNEEE>QNNQQQ, acidic αF-αG loop mutant (enzyme)” registered a stoichiometry N in assay [4] of 2.

Take PK-1 K49A, full length (enzyme): the stoichiometry N in [5] turned out to be 2.

As for “Cydia pomonella granulovirus protein kinase-1 (PK-1), full-length wild type (pPROEX Htb construct) (enzyme)”, the stoichiometry N in assay [6], in [7] and in assay [8] was 2 throughout.
